{"source": "paper PMC7870818", "about": "“SPRTN protease-cleaved MRE11 decreases DNA repair and radiosensitises cancer cells”", "binders": {"B1": {"name": "TP423/TP424 3'-overhang duplex (dsDNA)", "DNA 1": "CTGCAGGGTTTTTGTTCCAGTCTGTAGCACTGTGTAAGACAGGCCAGATC", "DNA 2": "CACAGTGCTACAGACTGGAACAAAAACCCTGCAGTACTCTACTCATCTC"}}, "key": {"FL-MRE11": {"biological_target": "T1, FL-MRE11 (human, UniProt P49959 1-708)", "T1 sequence": "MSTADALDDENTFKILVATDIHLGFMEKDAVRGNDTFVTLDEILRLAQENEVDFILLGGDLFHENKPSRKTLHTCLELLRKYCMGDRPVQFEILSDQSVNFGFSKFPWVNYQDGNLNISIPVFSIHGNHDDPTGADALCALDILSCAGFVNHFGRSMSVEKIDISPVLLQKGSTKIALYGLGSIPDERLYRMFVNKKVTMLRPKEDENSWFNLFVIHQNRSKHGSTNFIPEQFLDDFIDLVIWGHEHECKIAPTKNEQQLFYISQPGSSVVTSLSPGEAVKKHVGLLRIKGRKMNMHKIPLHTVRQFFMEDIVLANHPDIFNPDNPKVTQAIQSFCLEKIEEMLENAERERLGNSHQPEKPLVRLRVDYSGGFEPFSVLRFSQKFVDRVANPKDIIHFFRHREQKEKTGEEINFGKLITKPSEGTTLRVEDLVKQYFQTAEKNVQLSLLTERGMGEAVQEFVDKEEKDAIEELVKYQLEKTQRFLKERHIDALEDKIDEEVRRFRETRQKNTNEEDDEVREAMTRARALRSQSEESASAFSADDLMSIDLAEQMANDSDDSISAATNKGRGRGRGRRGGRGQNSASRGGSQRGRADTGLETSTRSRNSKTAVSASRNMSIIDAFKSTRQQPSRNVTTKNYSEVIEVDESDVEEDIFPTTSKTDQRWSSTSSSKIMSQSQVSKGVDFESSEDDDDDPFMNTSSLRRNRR", "experiment": "fluorescence polarization; no metal listed in buffer; apparent Kd, n=1; 10 mM Tris pH 8.0, 25 mM NaCl, 0.1% Tween20, 2 mM DTT; 10 nM DNA; temperature not stated, measured immediately", "details": "protein: recombinant; tags: His tag (pNIC28-Bsa4), TEV protease treated; chain copies: 2; label: 5' FITC on TP423; 34 bp duplex (S1[1-34] with S2[1-34]); 3' overhangs 16 nt (S1) and 15 nt (S2)"}, "TR-MRE11": {"biological_target": "T2, TR-MRE11 (human, UniProt P49959 1-568, del569-708)", "T2 sequence": "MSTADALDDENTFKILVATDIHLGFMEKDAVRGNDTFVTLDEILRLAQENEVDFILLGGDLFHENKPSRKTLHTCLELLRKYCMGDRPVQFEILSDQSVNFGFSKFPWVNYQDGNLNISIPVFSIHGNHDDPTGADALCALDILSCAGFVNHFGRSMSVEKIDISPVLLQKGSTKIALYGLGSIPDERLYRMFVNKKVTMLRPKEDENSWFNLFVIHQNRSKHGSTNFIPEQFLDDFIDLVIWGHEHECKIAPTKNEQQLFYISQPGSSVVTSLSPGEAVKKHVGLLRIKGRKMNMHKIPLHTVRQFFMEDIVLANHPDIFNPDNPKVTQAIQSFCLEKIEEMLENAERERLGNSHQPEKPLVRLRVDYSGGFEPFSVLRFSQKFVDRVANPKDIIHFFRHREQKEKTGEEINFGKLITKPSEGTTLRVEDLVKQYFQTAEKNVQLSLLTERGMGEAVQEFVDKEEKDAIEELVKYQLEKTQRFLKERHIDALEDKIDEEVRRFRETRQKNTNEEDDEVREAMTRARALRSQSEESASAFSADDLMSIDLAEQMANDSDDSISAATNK", "experiment": "fluorescence polarization; no metal listed in buffer; apparent Kd, n=1; 7-fold lower affinity than FL; 10 mM Tris pH 8.0, 25 mM NaCl, 0.1% Tween20, 2 mM DTT; 10 nM DNA; temperature not stated, measured immediately", "details": "protein: recombinant; tags: His-SUMO tag removed by SUMO protease; chain copies: 2; label: 5' FITC on TP423; 34 bp duplex (S1[1-34] with S2[1-34]); 3' overhangs 16 nt (S1) and 15 nt (S2)"}}}
{"binder": "B1", "values": [{"measurement": "Kd", "setting": "FL-MRE11", "value": 34.6, "unit": "nM"}, {"measurement": "Kd", "setting": "TR-MRE11", "value": 242, "unit": "nM"}]}
